Measured values: the supplement of paper PMC9112550, “Optimization of the antimicrobial peptide Bac7 by deep mutational scanning” (BMC Biology, 2022)

Each sequence was assayed on Escherichia coli TOP10 (assay: shrunken log2 fold change of peptide-encoding DNA abundance (4.5 h post-induction vs induction); higher = less antimicrobial activity (less host growth inhibition)). Conditions: time post-induction: 4.5 h; library: site-saturation at positions 5, 18, 19, 20.
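Further: peptides expressed intracellularly from a pBAD plasmid library in pooled LB shake-flask culture, induced with 0.3% L-arabinose, DNA abundance read by NGS, three biological replicates, DESeq2 with apeglm shrinkage.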

Row | Sequence | shrunken log2 fold change
1 | RRIRNRPPRLPRPRPRPKLTPRP | 2
2 | RRIRLRPPRLPRPRPRPGPDPRP | 0.953
3 | RRIRERPPRLPRPRPRPEMSPRP | 0.0528
4 | RRIRSRPPRLPRPRPRPKWGPRP | 0.228
5 | RRIRERPPRLPRPRPRPYAYPRP | -0.000687
6 | RRIRRRPPRLPRPRPRPDAHPRP | -0.00208
7 | RRIRGRPPRLPRPRPRPMPDPRP | 0.13
8 | RRIRIRPPRLPRPRPRPMRQPRP | 0.3
9 | RRIRWRPPRLPRPRPRPVTEPRP | 0.361
10 | RRIRTRPPRLPRPRPRPIMMPRP | -0.267
11 | RRIRWRPPRLPRPRPRPWSDPRP | -0.289
12 | RRIRFRPPRLPRPRPRPKAIPRP | -0.0919
13 | RRIRTRPPRLPRPRPRPYMYPRP | -0.767
14 | RRIRFRPPRLPRPRPRPWHPPRP | -0.409
15 | RRIRIRPPRLPRPRPRPRTMPRP | -0.377
16 | RRIRMRPPRLPRPRPRPQAIPRP | -0.00149
17 | RRIRMRPPRLPRPRPRPCAMPRP | 0.424
18 | RRIRRRPPRLPRPRPRPQHWPRP | 0.179
19 | RRIRARPPRLPRPRPRPYARPRP | -0.118
20 | RRIRWRPPRLPRPRPRPWIFPRP | -0.679
21 | RRIRLRPPRLPRPRPRPETWPRP | 0.0117
22 | RRIRWRPPRLPRPRPRPEKEPRP | 0.0112
23 | RRIRPRPPRLPRPRPRPPRRPRP | 0.638
24 | RRIRPRPPRLPRPRPRPISKPRP | -0.306
25 | RRIRIRPPRLPRPRPRPILYPRP | -0.357

Row | Sequence | shrunken log2 fold change
26 | RRIRERPPRLPRPRPRPNQDPRP | 0.169
27 | RRIRTRPPRLPRPRPRPWGHPRP | -0.066
28 | RRIRTRPPRLPRPRPRPSRMPRP | -0.0328
29 | RRIRDRPPRLPRPRPRPVTCPRP | -0.00663
30 | RRIRRRPPRLPRPRPRPRTCPRP | 0.477
31 | RRIRMRPPRLPRPRPRPYEVPRP | -0.00992
32 | RRIRHRPPRLPRPRPRPSWIPRP | -0.171
33 | RRIRARPPRLPRPRPRPPWSPRP | 0.585
34 | RRIRLRPPRLPRPRPRPWIGPRP | -0.177
35 | RRIRQRPPRLPRPRPRPIMIPRP | -0.452
36 | RRIRKRPPRLPRPRPRPHLRPRP | -0.0961
37 | RRIRYRPPRLPRPRPRPKRWPRP | 0.165
38 | RRIRKRPPRLPRPRPRPVLNPRP | 0.0304
39 | RRIRWRPPRLPRPRPRPNQTPRP | 0.0653
40 | RRIRFRPPRLPRPRPRPPYSPRP | -0.235
41 | RRIRVRPPRLPRPRPRPPAMPRP | 0.246
42 | RRIRVRPPRLPRPRPRPFYPPRP | -0.441
43 | RRIRNRPPRLPRPRPRPEAKPRP | 0.302
44 | RRIRFRPPRLPRPRPRPFHMPRP | -0.116
45 | RRIRTRPPRLPRPRPRPNNEPRP | -0.581
46 | RRIRKRPPRLPRPRPRPGGSPRP | 0.178
47 | RRIRSRPPRLPRPRPRPVNTPRP | -0.691
48 | RRIRTRPPRLPRPRPRPEEDPRP | -0.00174
49 | RRIRHRPPRLPRPRPRPNTAPRP | -0.246
50 | RRIRNRPPRLPRPRPRPTTCPRP | -0.275

Row | Sequence | shrunken log2 fold change
51 | RRIRVRPPRLPRPRPRPMKTPRP | 0.00695
52 | RRIRHRPPRLPRPRPRPACVPRP | 0.0678
53 | RRIRMRPPRLPRPRPRPKYMPRP | 0.00659
54 | RRIRPRPPRLPRPRPRPLNCPRP | -0.227
55 | RRIRPRPPRLPRPRPRPWNQPRP | -0.759
56 | RRIRGRPPRLPRPRPRPCDIPRP | -0.00533
57 | RRIRNRPPRLPRPRPRPYIFPRP | -0.327
58 | RRIRQRPPRLPRPRPRPAYDPRP | -0.0146
59 | RRIRFRPPRLPRPRPRPVTNPRP | -0.0718
60 | RRIRNRPPRLPRPRPRPLWAPRP | -0.0559
61 | RRIRERPPRLPRPRPRPDEKPRP | 0.147
62 | RRIRSRPPRLPRPRPRPTWPPRP | 0.41
63 | RRIRDRPPRLPRPRPRPLLHPRP | 0.114
64 | RRIRMRPPRLPRPRPRPTYFPRP | -0.0299
65 | RRIRVRPPRLPRPRPRPSRWPRP | 0.278
66 | RRIRARPPRLPRPRPRPADYPRP | 0.177
67 | RRIRCRPPRLPRPRPRPHQVPRP | -0.288
68 | RRIRRRPPRLPRPRPRPSQFPRP | 0.0893
69 | RRIRMRPPRLPRPRPRPCKQPRP | 0.0203
70 | RRIRVRPPRLPRPRPRPMPAPRP | 0.149
71 | RRIRLRPPRLPRPRPRPKQTPRP | 0.0369
72 | RRIRQRPPRLPRPRPRPPYRPRP | 0.158
73 | RRIRIRPPRLPRPRPRPICCPRP | -0.107
74 | RRIRERPPRLPRPRPRPPQEPRP | 0.192
75 | RRIRHRPPRLPRPRPRPAKNPRP | -0.207

Row | Sequence | shrunken log2 fold change
76 | RRIRNRPPRLPRPRPRPVFKPRP | -0.183
77 | RRIRPRPPRLPRPRPRPPQGPRP | 0.686
78 | RRIRYRPPRLPRPRPRPHKGPRP | -0.29
79 | RRIRERPPRLPRPRPRPSDGPRP | -0.166
80 | RRIRTRPPRLPRPRPRPKGNPRP | -0.403
81 | RRIRGRPPRLPRPRPRPKAPPRP | 0.855
82 | RRIRPRPPRLPRPRPRPPACPRP | 0.207
83 | RRIRCRPPRLPRPRPRPGMKPRP | 0.062
84 | RRIRHRPPRLPRPRPRPPLEPRP | 0.223
85 | RRIRKRPPRLPRPRPRPHQPPRP | 0.413
86 | RRIRVRPPRLPRPRPRPAANPRP | -0.00167
87 | RRIRPRPPRLPRPRPRPNCIPRP | -0.134
88 | RRIRGRPPRLPRPRPRPTAAPRP | 1.97
89 | RRIRTRPPRLPRPRPRPEPSPRP | 0.534
90 | RRIRRRPPRLPRPRPRPDFSPRP | -0.18
91 | RRIRRRPPRLPRPRPRPFEHPRP | -0.0715
92 | RRIRYRPPRLPRPRPRPVMVPRP | -0.139
93 | RRIRTRPPRLPRPRPRPRRHPRP | 0.0424
94 | RRIRDRPPRLPRPRPRPIMSPRP | -0.0134
95 | RRIRARPPRLPRPRPRPRFTPRP | 0.267
96 | RRIRLRPPRLPRPRPRPLAHPRP | -0.174
97 | RRIRRRPPRLPRPRPRPAQEPRP | 0.146
98 | RRIRVRPPRLPRPRPRPCHKPRP | -0.203
99 | RRIRFRPPRLPRPRPRPKCLPRP | 0.049
100 | RRIRFRPPRLPRPRPRPYWAPRP | -0.328

Row | Sequence | shrunken log2 fold change
101 | RRIRCRPPRLPRPRPRPMVLPRP | -0.388
102 | RRIRNRPPRLPRPRPRPEIIPRP | -0.00607
103 | RRIRSRPPRLPRPRPRPSTPPRP | -0.0374
104 | RRIRHRPPRLPRPRPRPTPEPRP | -0.0453
105 | RRIRWRPPRLPRPRPRPAPVPRP | 0.433
106 | RRIRARPPRLPRPRPRPVNYPRP | -0.476
107 | RRIRDRPPRLPRPRPRPVNIPRP | 0.0452
108 | RRIRKRPPRLPRPRPRPKQEPRP | -0.104
109 | RRIRKRPPRLPRPRPRPKAVPRP | -0.11
110 | RRIRYRPPRLPRPRPRPDLRPRP | -1.03
111 | RRIRQRPPRLPRPRPRPKTLPRP | -0.156
112 | RRIRDRPPRLPRPRPRPCTSPRP | -0.000687
113 | RRIRYRPPRLPRPRPRPTQFPRP | -0.558
114 | RRIRYRPPRLPRPRPRPEDGPRP | -0.141
115 | RRIRPRPPRLPRPRPRPTLIPRP | -0.169
116 | RRIRHRPPRLPRPRPRPSMDPRP | -0.828
117 | RRIRYRPPRLPRPRPRPQTCPRP | -0.0146
118 | RRIRSRPPRLPRPRPRPTKRPRP | 0.294
119 | RRIRYRPPRLPRPRPRPNGWPRP | -0.0316
120 | RRIRWRPPRLPRPRPRPYMKPRP | -0.459
121 | RRIRVRPPRLPRPRPRPRSAPRP | 0.258
122 | RRIRERPPRLPRPRPRPNLLPRP | 0.107
123 | RRIRCRPPRLPRPRPRPYTAPRP | -0.595
124 | RRIRSRPPRLPRPRPRPMLFPRP | -0.196
125 | RRIRCRPPRLPRPRPRPEFLPRP | -0.091

Row | Sequence | shrunken log2 fold change
126 | RRIRSRPPRLPRPRPRPVINPRP | -0.106
127 | RRIRFRPPRLPRPRPRPRSFPRP | -0.138
128 | RRIRQRPPRLPRPRPRPALDPRP | 0.296
129 | RRIRLRPPRLPRPRPRPQEQPRP | -0.00233
130 | RRIRTRPPRLPRPRPRPCHFPRP | -0.387
131 | RRIRLRPPRLPRPRPRPSNLPRP | -0.181
132 | RRIRCRPPRLPRPRPRPKMDPRP | -0.0622
133 | RRIRDRPPRLPRPRPRPMLRPRP | 0.0179
134 | RRIRDRPPRLPRPRPRPQSRPRP | -0.123
135 | RRIRHRPPRLPRPRPRPSIEPRP | -0.37
136 | RRIRVRPPRLPRPRPRPEWVPRP | 0.23
137 | RRIRLRPPRLPRPRPRPGNQPRP | -0.0104
138 | RRIRTRPPRLPRPRPRPEQTPRP | 0.303
139 | RRIRKRPPRLPRPRPRPMYMPRP | -0.103
140 | RRIRDRPPRLPRPRPRPRYIPRP | -0.356
141 | RRIRIRPPRLPRPRPRPRGGPRP | 0.217
142 | RRIRSRPPRLPRPRPRPQTKPRP | -0.0915
143 | RRIRPRPPRLPRPRPRPLCCPRP | -0.105
144 | RRIRTRPPRLPRPRPRPLFEPRP | -0.166
145 | RRIRTRPPRLPRPRPRPRNLPRP | -0.218
146 | RRIRARPPRLPRPRPRPCYGPRP | -0.246
147 | RRIRQRPPRLPRPRPRPYWVPRP | -0.264
148 | RRIRTRPPRLPRPRPRPIPHPRP | -0.307
149 | RRIRCRPPRLPRPRPRPELSPRP | 0.52
150 | RRIRHRPPRLPRPRPRPMPRPRP | 0.069
